Data published in US20250042969A1, “ANTIGEN DISCOVERY FOR T CELL RECEPTORS ISOLATED FROM PATIENT TUMORS RECOGNIZING WILD-TYPE ANTIGENS AND POTENT PEPTIDE MIMOTOPES” (The Board of Trustees of the Leland Stanford Junior …, priority 2017, published 2025).

Key:
[1] = molecular target: …-HLA-A*02:01 single-chain trimer displayed on yeast (human); test: flow cytometry histogram of yeast displaying … with HLA-A*02:01, '+' (MA2.1 then secondary antibody); the row '-' gives 9.655 in the same gate
[2] = molecular target: …-HLA-A*02:01 single-chain trimer displayed on yeast (human); test: flow cytometry histogram of yeast displaying … with HLA-A*02:01, '+' (MA2.1 then secondary antibody); the row '-' gives 7.270 in the same gate
[3] = molecular target: …-HLA-A*02:01 single-chain trimer displayed on yeast (human); test: flow cytometry histogram of yeast displaying … with HLA-A*02:01, '+' (MA2.1 then secondary antibody); the row '-' gives 6.825 in the same gate
[4] = molecular target: …-HLA-A*02:01 single-chain trimer displayed on yeast (human); test: flow cytometry histogram of yeast displaying … with HLA-A*02:01, '+' (MA2.1 then secondary antibody); the row '-' gives 5.574 in the same gate
[5] = molecular target: …-HLA-A*02:01 single-chain trimer displayed on yeast (human); test: flow cytometry histogram of yeast displaying … with HLA-A*02:01, '+' (MA2.1 then secondary antibody); the row '-' gives 6.542 in the same gate
[6] = molecular target: …-HLA-A*02:01 single-chain trimer displayed on yeast (human); test: flow cytometry histogram of yeast displaying … with HLA-A*02:01, '+' (MA2.1 then secondary antibody); the row '-' gives 6.578 in the same gate
[7] = molecular target: …-HLA-A*02:01 single-chain trimer displayed on yeast (human); test: flow cytometry of yeast displaying [..]-HLA-A*02:01, 400 nM DMF5 TCR tetramerized on SA-647 against anti-HA; the panel with SA-647 alone gives 10.80 in the same quadrant

Substance	percent of yeast in the MA2.1-positive gate [1]	percent of yeast in the MA2.1-positive gate [2]	percent of yeast in the MA2.1-positive gate [3]	percent of yeast in the MA2.1-positive gate [4]	percent of yeast in the MA2.1-positive gate [5]	percent of yeast in the MA2.1-positive gate [6]	percent of yeast SA-647+ HA-488+ (upper right quadrant) [7]
MA2.1 antibody	73.7	68.6	74.2	69	55.5	74.2	
DMF5 TCR, soluble, multimerized on streptavidin							55.8
